In general, stoichiometry N refers to a count of units in the complex or per binding partner.

Several values for one entry are separate records, joined by “and”; a condition that tells them apart may be missing. Equal values may be shown once.

The target of experiment [1] is Miro1^P13V ΔTM (UniProt Q8IXI2). Kind of experiment: mass photometry.
The target of experiment [2] is Miro1^P13V-Strep (UniProt Q8IXI2). Kind of experiment: pull-down.

Sequence of UniProt Q8IXI2 (Q8IXI2 whole entry P13V): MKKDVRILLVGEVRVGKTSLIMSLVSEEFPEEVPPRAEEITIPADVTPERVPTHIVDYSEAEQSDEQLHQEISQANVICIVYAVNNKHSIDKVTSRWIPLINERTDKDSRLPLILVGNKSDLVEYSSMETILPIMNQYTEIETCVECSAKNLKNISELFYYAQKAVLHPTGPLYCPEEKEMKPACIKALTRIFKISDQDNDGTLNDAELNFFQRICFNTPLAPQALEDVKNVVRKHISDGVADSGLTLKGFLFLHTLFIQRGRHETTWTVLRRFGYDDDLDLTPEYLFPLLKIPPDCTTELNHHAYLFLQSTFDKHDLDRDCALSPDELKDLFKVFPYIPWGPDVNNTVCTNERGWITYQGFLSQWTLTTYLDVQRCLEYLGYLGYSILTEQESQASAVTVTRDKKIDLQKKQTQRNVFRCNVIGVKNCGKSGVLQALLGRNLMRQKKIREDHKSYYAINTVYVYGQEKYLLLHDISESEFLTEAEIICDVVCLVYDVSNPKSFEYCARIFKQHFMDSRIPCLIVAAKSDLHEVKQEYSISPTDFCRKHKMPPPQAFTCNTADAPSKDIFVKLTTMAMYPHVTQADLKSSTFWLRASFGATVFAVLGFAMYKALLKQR

With “Miro1^P13V ΔTM (from UniProt Q8IXI2 1-618) (domain or fragment)”, in experiment [1], the percent forming dimers is 3%; the stoichiometry N is 3 and 4.

B1: TRAK1^562-635 (domain or fragment)
chain: MSFSSRSYLPEKLQIVKPLEGSATLHHWQQLAQPHLGGILDPRPGVVTKGFRTLDVDLDEVYCLNDFEEDDTGD
With B1, the reduction of the TRAK1:Miro1-Strep band intensity against Miro1^WT in experiment [2] was 30%.
